koff, kon and Kd data for one substance are collected here from US20180256731A1, “NOVEL INSULIN ANALOG AND USE THEREOF” (HANMI PHARM. CO., LTD, priority 2013, published 2018).

In test [1] the target is Insulin receptor. The test is described as follows: SPR (BIACORE 3000), receptor on CM5 chip; Test 1. (In general: SPR reads the build-up and loss of mass on a sensor chip optically.)
The target of test [2] is Insulin receptor. Description: SPR (BIACORE 3000), receptor on CM5 chip; Test 5.
For test [3], the target named is Insulin receptor. Description: SPR (BIACORE 3000), receptor on CM5 chip; Test 4.
For test [4], the target named is Insulin receptor. Description: SPR (BIACORE 3000), receptor on CM5 chip; Test 3.
For test [5], the target named is Insulin receptor. Description: SPR (BIACORE 3000), receptor on CM5 chip; Test 2.

One may read the koff as a measure of how fast the partners let go of each other. High values mean fast dissociation, low ones slow dissociation. The kon is the rate constant with which the complex forms. By Kd is commonly meant the free concentration of one partner at which half of the binding sites on the other are occupied at equilibrium, for simple one-to-one binding. In the case of Native human insulin (ligand), the koff amounted to 0.00747 s⁻¹ in the test with Insulin receptor [1]; 0.0097 s⁻¹ with Insulin receptor [2]; 0.0124 s⁻¹ in the test with Insulin receptor [3]; 0.0107 s⁻¹ in the test with Insulin receptor [4]; 0.0101 s⁻¹ with Insulin receptor [5]. Further, the kon was found to be 221000 M⁻¹ s⁻¹ with Insulin receptor [1]; 200000 M⁻¹ s⁻¹ in the test with Insulin receptor [2]; 290000 M⁻¹ s⁻¹ with Insulin receptor [3]; 176000 M⁻¹ s⁻¹ with Insulin receptor [4]; 229000 M⁻¹ s⁻¹ with Insulin receptor [5]. For the same substance, the Kd in the test with Insulin receptor [4] came out at 63.5 nM.
